Data as given in the supplement of paper PMC9170038.

Test system: MS2 coat protein
Experiment: apparent KD of MS2 coat protein; designed switch direction (-1 OFF switch, 1 ON switch): -1; higher = weaker reporter binding
Procedure, shortened: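 For each design, the apparent KD is the median over clusters of curves fitted to normalised cluster fluorescence. Clusters held RNA switches with common flanks, transcribed on Illumina chips by stalled E. coli RNA polymerase. These were titrated with SNAP-549-labelled MS2 coat protein, doubling from 0.7 or 1.5 nM to 3 µM, without input, with 200 uM small-molecule ligand, or with an oligonucleotide input.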

[1] = Eterna round: R95, input ligand: FMN 200 uM
[2] = Eterna round: R95, input ligand: microRNA oligo, concentration not stated
[3] = Eterna round: R95, input ligand: none
[4] = input ligand: microRNA oligo, concentration not stated

Sequence | apparent KD of MS2 coat protein [1] [nM] | apparent KD of MS2 coat protein [2] [nM] | apparent KD of MS2 coat protein [3] [nM] | apparent KD of MS2 coat protein (input ligand: FMN 200 uM) [nM] | apparent KD of MS2 coat protein [4] [nM] | apparent KD of MS2 coat protein (input ligand: none) [nM]
GCUUUUCUUUUCCUUUCUUACAUGAGGAUCACCCAUGUUUCUUGUCGUGCUCGCGUUGUUCGUCUGUCUGUCUGUUG [salish99_TOv1_r3_081] (puzzle: Sensor v3, turn-off variant 1) | 37.4 | 35.5 | 47.6 | – | – | –
UUGGUUGUGGUAGGAUAUCCGUUGGAAACUGUUGGAGAAGGACCACAGUCACUGGGUCCUUCUUUGGUGGAGUGGAAGAACCAU [pwkr exNG1 F6.17] (Eterna round: R96, puzzle: Exclusion NG 1) | – | – | – | 131 | 192 | 167
AUAAAUCAUGUAGGAUAUGCAUAGCAAAGCUAUGCAGAAGGACAUGAGGAUCACCCAUGUCAUUCCGUCUGGAGACAGACGGGA [Mat - Exclusion NG 1 - Mod of JL - D57] (Eterna round: R96, puzzle: Exclusion NG 1) | – | – | – | 129 | 26.4 | 32
GAUCAUGCAGGAUAUACAUGAACCAUGAAAACAUGGUUUUCACAUGAGGAUCACCCAUGUAGAAGGGCAUGAUC [Omei Ex2 A7] (Eterna round: R97, puzzle: Exclusion 2) | – | – | – | 183 | – | 56.7
AGUAACCGUCACGAAAGUGAUGGUUACACAAGCAUAUGUACAUGAGGAUCACCCAUGUCCUCAACUGCUCGUCUUAU [Sensor 3 - 55] (puzzle: Sensor v3, turn-off variant 2) | 296 | 385 | 424 | – | – | –
GGAUAAAAGUGAGGAUAUGAGGAGAGAGAGAGAUCAGAAGGCACACAUGAGGAUCACCCAUGUGAGUUCUCGAUAAGAAACACG [Prohibition 55 - Jieux - Exclusion NG 1] (Eterna round: R96, puzzle: Exclusion NG 1) | – | – | – | 14.3 | 13.2 | 15.9
CGUAUGUGAGGAUAUGGUCUCGAUGACAUGAGGAUCACCCAUGUAACAUGGGACUUGUGACUAGAAGGCACUAACG [JR_Ex5_Sub023] (Eterna round: R97, puzzle: Exclusion 5) | – | – | – | 29.1 | – | 17.4
UUUUAACAUGAGGAUCACCCAUGUGAGGAUAUCGUUUUUUUUAUUAAUAUUAAUAAAACGAGAAGGCACAUUUU [JMF 18] (puzzle: Exclusion 1) | – | 140 | – | – | – | –
AGUACUAACACGAUAGUGUUAGUACUAUAAGCUUGUGUUACAUGAGGAUCACCCAUGUCCUCAUAAGCUCGUCUUAG [Mat - Sensor v3 - Turn-off var 2 - D66] (puzzle: Sensor v3, turn-off variant 2) | 39.8 | 83.2 | 41.6 | – | – | –
GUCAGCUCGUCAGGAUAUAUAUAUACAUGAGGAUCACCCAUGUUAGAUCAGCUUCGGCAGUAUAUAUAGAAGGGACGAGCUGAC [ENG2/15-B1] (Eterna round: R96, puzzle: Exclusion NG 2) | – | – | – | 153 | 59 | 72.5
GUAGAGUAAGGAUAUCAAGAAUAGGAUAGAAUGGUUAGAAUUGAGAAGGUACAUGAGGAUCACCCAUGUAAUGU [Excluse me!!!! 4 - Jieux - Exclusion 4] (puzzle: Exclusion 4) | – | 24.1 | – | – | – | –
GAGUACUGAGGAUAUACAUGAGGAUCACCCAUGUGUUCCAGCUAGGAAACUAGCAAAAGUAGAAGGCAGUACUG [salish99_ex3_r3_084] (puzzle: Exclusion 3) | – | 18.9 | – | – | – | –
AGUACUAACACGUAAGUGUUAGUACAAUAAGCUUGUGAAACAUGAGGAUCACCCAUGUCCUCAUAAGCUCGUCUUAU [salish99_TOv2_r3_025] (puzzle: Sensor v3, turn-off variant 2) | 17.9 | 659 | 15.4 | – | – | –
CUUUUGUGAGGAUAUCAGUAGUAAAAAAAUUAAAUUACUACUGAGAAGGCACAUGAGGAUCACCCAUGUUCCUC [salish99_ex4_r3_022] (puzzle: Exclusion 4) | – | 36.4 | – | – | – | –
GAUUAUGCGAGCUUUAGGGACAUGAGGAUCACCCAUGUUCGUCUUAUUGAUCUGGGUACACUGACAUACCUAAAUCU [JMF 70] (puzzle: Sensor v3, turn-off variant 1) | 88.8 | 115 | 110 | – | – | –
ACCUCACAUGAGGAUCACCCAUGUCAGGAUAUCUAAUAUUGCAGCGUUCCCGACGCUGAGAGAAGGGACAUUAA [EX1 #30] (Eterna round: R97, puzzle: Exclusion 1) | – | – | – | 29.6 | – | 17.7
GAAAAGCGAGGAUAUACUUGCAGUGUACCUCGGGUGAUCUCACUUGAGGAUCACCCAAGUAGAAGGCGCGAGGG [Quletibe] (Eterna round: R97, puzzle: Exclusion 2) | – | – | – | 4.5 | – | 45.2
